# Measured values reported in doi:10.64898/2025.12.15.693380 (bioRxiv, 2025).
# B1: full-length human NCBE (Na+-dependent Cl-/HCO3- exchanger, SLC4A10) (natural protein, UniProt Q6U841 1-1118, looked up)
# chain: MEIKDQGAQMEPLLPTRNDEEAVVDRGGTRSILKTHFEKEDLEGHRTLFIGVHVPLGGRKSHRRHRHRGHKHRKRDRERDSGLEDGRESPSFDTPSQRVQFILGTEDDDEEHIPHDLFTELDEICWREGEDAEWRETARWLKFEEDVEDGGERWSKPYVATLSLHSLFELRSCILNGTVLLDMHANTLEEIADMVLDQQVSSGQLNEDVRHRVHEALMKQHHHQNQKKLTNRIPIVRSFADIGKKQSEPNSMDKNAGQVVSPQSAPACVENKNDVSRENSTVDFSKGLGGQQKGHTSPCGMKQRHEKGPPHQQEREVDLHFMKKIPPGAEASNILVGELEFLDRTVVAFVRLSPAVLLQGLAEVPIPTRFLFILLGPLGKGQQYHEIGRSIATLMTDEVFHDVAYKAKDRNDLVSGIDEFLDQVTVLPPGEWDPSIRIEPPKNVPSQEKRKIPAVPNGTAAHGEAEPHGGHSGPELQRTGRIFGGLILDIKRKAPYFWSDFRDAFSLQCLASFLFLYCACMSPVITFGGLLGEATEGRISAIESLFGASMTGIAYSLFGGQPLTILGSTGPVLVFEKILFKFCKEYGLSYLSLRASIGLWTATLCIILVATDASSLVCYITRFTEEAFASLICIIFIYEALEKLFELSEAYPINMHNDLELLTQYSCNCVEPHNPSNGTLKEWRESNISASDIIWENLTVSECKSLHGEYVGRACGHDHPYVPDVLFWSVILFFSTVTLSATLKQFKTSRYFPTKVRSIVSDFAVFLTILCMVLIDYAIGIPSPKLQVPSVFKPTRDDRGWFVTPLGPNPWWTVIAAIIPALLCTILIFMDQQITAVIINRKEHKLKKGCGYHLDLLMVAVMLGVCSIMGLPWFVAATVLSITHVNSLKLESECSAPGEQPKFLGIREQRVTGLMIFILMGSSVFMTSILKFIPMPVLYGVFLYMGASSLKGIQFFDRIKLFWMPAKHQPDFIYLRHVPLRKVHLFTIIQMSCLGLLWIIKVSRAAIVFPMMVLALVFVRKLMDLLFTKRELSWLDDLMPESKKKKLEDAEKEEEQSMLAMEDEGTVQLPLEGHYRDDPSVINISDEMSKTALWRNLLITADNSKDKESSFPSKSSPS
# Biological target: the molecule itself
# Test: cryo-EM structure
protein,measurement,value
B1,stoichiometry N,2
